Test results taken from patent US20240182549A1 (published 2024).

B1: 15031 Fab-IgG (tetravalent) (antibody)
heavy: not shown
light: DIQMTQSPSSLSASVGDRVTITCRASQSVSSAVAWYQQKPGKAPKLLIYSASDLYSGVPSRFSGSRSGTDFTLTISSLQPEDFATYYCQQGSYLFTFGQGTKVEIKRTVAAPSVFIFPPSDEQLKSGTASVVCLLNNFYPREAKVQWKVDNALQSGNSQESVTEQDSKDSTYSLSSTLTLSKADYEKHKVYACEVTHQGLSSPVTKSFNRGEC
B2: 15031 IgG-Fab (tetravalent) (antibody)
heavy: not shown
light: B1 light
B3: peptide-IgG 33^LN1 (peptide p16 fused to the N-terminus of the light chain of IgG 15033) (antibody)
heavy: not shown
light: DFDFAENWMEQLKVMLGGGGSGGGGSGGGGSGGGGSDIQMTQSPSSLSASVGDRVTITCRASQSVSSAVAWYQQKPGKAPKLLIYSASDLYSGVPSRFSGSRSGTDFTLTISSLQPEDFATYYCQQSYRYPITFGQGTKVEIKRTVAAPSVFIFPPSDEQLKSGTASVVCLLNNFYPREAKVQWKVDNALQSGNSQESVTEQDSKDSTYSLSSTLTLSKADYEKHKVYACEVTHQGLSSPVTKSFNRGEC
B4: peptide-IgG 33^HN1 (peptide p16 fused to the N-terminus of the heavy chain of IgG 15033) (antibody)
heavy: not shown
light: DIQMTQSPSSLSASVGDRVTITCRASQSVSSAVAWYQQKPGKAPKLLIYSASDLYSGVPSRFSGSRSGTDFTLTISSLQPEDFATYYCQQSYRYPITFGQGTKVEIKRTVAAPSVFIFPPSDEQLKSGTASVVCLLNNFYPREAKVQWKVDNALQSGNSQESVTEQDSKDSTYSLSSTLTLSKADYEKHKVYACEVTHQGLSSPVTKSFNRGEC
B5: peptide-IgG 33^HR1 (peptide p102 fused to the N-terminus of the heavy chain of IgG 15033) (antibody)
heavy: not shown
light: B4 light
B6: peptide-IgG 33^LR1 (peptide p102 fused to the N-terminus of the light chain of IgG 15033) (antibody)
heavy: not shown
light: ECWEWSYQLQEWSPCPGGGGSGGGGSGGGGSGGGGSDIQMTQSPSSLSASVGDRVTITCRASQSVSSAVAWYQQKPGKAPKLLIYSASDLYSGVPSRFSGSRSGTDFTLTISSLQPEDFATYYCQQSYRYPITFGQGTKVEIKRTVAAPSVFIFPPSDEQLKSGTASVVCLLNNFYPREAKVQWKVDNALQSGNSQESVTEQDSKDSTYSLSSTLTLSKADYEKHKVYACEVTHQGLSSPVTKSFNRGEC
B7: IgG 15031 (antibody, V domains shown)
VH: EVQLVESGGGLVQPGGSLRLSCAASGFDLTGSYMHWVRQAPGKGLEWVAGISASGGATAYADSVKGRFTISADTSKNTAYLQMNSLRAEDTAVYYCARSRSSSYSSSGWRYYSGAFDYWGQGTLVTVSS
VL: DIQMTQSPSSLSASVGDRVTITCRASQSVSSAVAWYQQKPGKAPKLLIYSASDLYSGVPSRFSGSRSGTDFTLTISSLQPEDFATYYCQQGSYLFTFGQGTKVEIKR

How the values were obtained:
[1] = target: T1, SARS-CoV-2 S protein ectodomain trimer (residues 1-1211, foldon trimerization motif, 6xHis tag, AviT (SARS-CoV-2; bacteriophage T4, UniProt P0DTC2 14-1211; P10104 458-484); experiment: BLI on immobilized S protein
[2] = target: T1, SARS-CoV-2 S protein ectodomain trimer …
[3] = target: T1, SARS-CoV-2 S protein ectodomain trimer …; experiment: BLI on immobilized S protein ECD
[4] = target: T1, SARS-CoV-2 S protein ectodomain trimer …; experiment: ELISA on biotinylated S protein trimer captured with immobilized streptavidin

| Binder | binding result [1] | Kd [2] [pM] | koff [2] [s⁻¹] | kon [2] [M⁻¹ s⁻¹] | fold improvement of apparent KD relative to IgG 15033 [3] [fold] | binding result [4] |
| --- | --- | --- | --- | --- | --- | --- |
| B1 | binds |  |  |  |  |  |
| B2 | binds |  |  |  |  |  |
| B3 |  | < 1 | < 1e-07 | 1.1e+06 | > 100 |  |
| B4 |  | 24 | 3.8e-05 | 1.6e+06 |  |  |
| B5 |  | < 1 | < 1e-07 | 1.2e+06 | > 100 |  |
| B6 |  | 6.1 | 2.2e-06 | 350000 |  |  |
| B7 |  |  |  |  |  | binds |
